Legend:
Assay in all cases: MST
[1] = molecular target: T1, recombinant His-tagged GluTR-binding protein (GBP) (Arabidopsis, UniProt Q9LU39 43-317)
T1 chain: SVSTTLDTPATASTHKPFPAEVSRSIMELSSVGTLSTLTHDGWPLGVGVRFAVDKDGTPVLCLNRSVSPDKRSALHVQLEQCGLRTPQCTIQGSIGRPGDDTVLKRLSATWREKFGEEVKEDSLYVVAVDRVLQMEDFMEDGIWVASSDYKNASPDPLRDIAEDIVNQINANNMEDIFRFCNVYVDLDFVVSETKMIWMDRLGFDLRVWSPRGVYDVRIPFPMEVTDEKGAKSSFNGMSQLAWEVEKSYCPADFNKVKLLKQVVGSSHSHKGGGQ

[2] = molecular target: T2, recombinant His-tagged PORB (Arabidopsis, UniProt P21218 67-401)
T2 chain: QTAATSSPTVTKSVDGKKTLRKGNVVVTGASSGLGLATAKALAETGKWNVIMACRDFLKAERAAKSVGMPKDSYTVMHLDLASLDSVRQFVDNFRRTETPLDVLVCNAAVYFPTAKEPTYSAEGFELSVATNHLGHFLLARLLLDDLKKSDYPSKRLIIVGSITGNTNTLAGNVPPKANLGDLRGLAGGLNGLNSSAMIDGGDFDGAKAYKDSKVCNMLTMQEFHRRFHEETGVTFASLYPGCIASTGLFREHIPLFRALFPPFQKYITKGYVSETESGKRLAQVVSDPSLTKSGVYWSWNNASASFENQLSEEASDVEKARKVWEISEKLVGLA

[3] = molecular target: T3, recombinant His-tagged full-length GluTR1 (Arabidopsis, UniProt P42804 62-543)
T3 chain: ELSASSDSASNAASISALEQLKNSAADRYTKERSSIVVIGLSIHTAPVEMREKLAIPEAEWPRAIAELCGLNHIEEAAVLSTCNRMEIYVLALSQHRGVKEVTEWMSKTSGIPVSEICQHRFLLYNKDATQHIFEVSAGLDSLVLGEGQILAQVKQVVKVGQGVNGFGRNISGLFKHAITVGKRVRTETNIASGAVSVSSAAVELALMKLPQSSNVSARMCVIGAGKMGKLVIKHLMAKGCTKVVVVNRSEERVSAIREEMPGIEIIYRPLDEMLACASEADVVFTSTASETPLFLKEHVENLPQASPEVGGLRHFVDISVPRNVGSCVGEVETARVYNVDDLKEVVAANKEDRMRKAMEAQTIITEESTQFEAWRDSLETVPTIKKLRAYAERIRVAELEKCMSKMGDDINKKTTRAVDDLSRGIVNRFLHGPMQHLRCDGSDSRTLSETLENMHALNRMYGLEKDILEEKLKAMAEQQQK

[4] = molecular target: GST-tag (Schistosoma japonicum)
[5] = molecular target: T4, linker domain followed by the TPR domain of FLU, link TPR_((FLU)) (Arabidopsis)
T4 chain: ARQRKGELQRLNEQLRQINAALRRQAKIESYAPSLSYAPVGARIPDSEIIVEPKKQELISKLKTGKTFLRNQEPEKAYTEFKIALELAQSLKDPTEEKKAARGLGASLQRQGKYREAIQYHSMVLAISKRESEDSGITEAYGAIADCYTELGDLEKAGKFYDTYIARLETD

[6] = molecular target: T5, recombinant His-tagged PORC (Arabidopsis, UniProt O48741 68-401)
T5 chain: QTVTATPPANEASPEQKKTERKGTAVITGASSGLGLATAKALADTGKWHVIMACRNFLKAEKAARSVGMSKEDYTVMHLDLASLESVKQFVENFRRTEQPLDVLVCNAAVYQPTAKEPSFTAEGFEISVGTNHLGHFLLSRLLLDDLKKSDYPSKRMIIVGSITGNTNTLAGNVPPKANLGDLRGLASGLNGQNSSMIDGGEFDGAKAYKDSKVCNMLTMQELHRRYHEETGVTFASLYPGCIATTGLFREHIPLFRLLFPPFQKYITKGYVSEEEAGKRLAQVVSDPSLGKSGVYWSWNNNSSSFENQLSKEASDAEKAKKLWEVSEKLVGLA

[7] = molecular target: T6, TPR domain of FLU, TPR_((FLU)), GST-tagged (Arabidopsis)
T6 chain: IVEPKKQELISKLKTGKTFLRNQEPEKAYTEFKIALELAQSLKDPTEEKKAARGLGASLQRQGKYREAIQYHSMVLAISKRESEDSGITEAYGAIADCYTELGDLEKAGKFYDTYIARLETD

[8] = molecular target: T7, ΔREDGluTR-6xHis (Arabidopsis thaliana)
T7 chain: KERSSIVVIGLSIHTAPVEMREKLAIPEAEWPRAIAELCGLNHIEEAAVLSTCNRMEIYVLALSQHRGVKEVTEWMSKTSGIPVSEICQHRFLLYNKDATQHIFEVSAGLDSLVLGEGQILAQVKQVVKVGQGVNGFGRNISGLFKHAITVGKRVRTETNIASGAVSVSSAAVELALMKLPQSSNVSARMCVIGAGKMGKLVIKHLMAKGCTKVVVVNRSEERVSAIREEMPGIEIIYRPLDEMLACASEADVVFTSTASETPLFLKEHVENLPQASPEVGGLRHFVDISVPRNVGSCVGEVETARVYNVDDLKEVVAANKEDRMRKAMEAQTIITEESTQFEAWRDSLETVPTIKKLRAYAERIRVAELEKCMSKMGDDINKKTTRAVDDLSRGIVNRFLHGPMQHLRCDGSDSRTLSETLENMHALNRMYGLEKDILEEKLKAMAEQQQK

[9] = molecular target: T8, recombinant His-tagged PORA (Arabidopsis, UniProt Q42536 70-405)
T8 chain: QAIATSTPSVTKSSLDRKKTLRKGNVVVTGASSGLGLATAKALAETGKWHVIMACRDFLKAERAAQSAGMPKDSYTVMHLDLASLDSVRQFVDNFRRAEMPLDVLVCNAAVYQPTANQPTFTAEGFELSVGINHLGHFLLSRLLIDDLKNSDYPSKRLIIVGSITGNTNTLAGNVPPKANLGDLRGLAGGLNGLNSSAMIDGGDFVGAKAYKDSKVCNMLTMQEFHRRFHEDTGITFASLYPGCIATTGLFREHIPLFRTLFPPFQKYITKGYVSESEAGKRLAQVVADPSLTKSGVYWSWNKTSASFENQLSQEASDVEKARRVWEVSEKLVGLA

B1: recombinant 6×His-tagged TTP1, RED-NHS labelled (natural protein)
chain: MLMTLAATTSVSFNSKLLLFRIRCSDSNPKRGFGSKKEEKDPALQQRKSSSKQSVSVPRKAPGLNTQFEGKSGRSFDIDFDERLENIRRSALEQKKTEVVKEFGPIDYDAPVKSDQKTIGLGTKVGVGIAVVVFGLVFALGDFLPTGSDSPTKNTTVVKNQISEEEKATLQQRLKEFETTLNGTPQDQAALEGAAVTLTELGDYSRAAAFLEKLAKERPTDPDVFRLLGEVNYELNNYEGSIAAYKISEKVSKGIDLEVTRGLMNAYLAAKKPDEAVKFLLDTRERLNTKKTSTTDSVTDETNLDPIQVELLLGKAYSDWGHISDAIAVYDQLISAHPEDFRGYLAKGIILRENGSRGDAERMFIQARFFAPNKAKALVDRYSKL
modifications: labelled with the RED-NHS Protein Labeling Kit, degree of labeling approximately 1.0
[1]
  Kd: 266 nM
[2]
  Kd: 476 nM
[3]
  Kd: 295 nM
[4]
  Kd: > 400 µM
[5]
  Kd: 1610 nM
[6]
  Kd: 112 nM
[7]
  Kd: 7.9 µM
[8]
  Kd: 3.05 µM
[9]
  Kd: 1310 nM
